According to PMC7414021, “Dodecin as carrier protein for immunizations and bioengineering applications” (Scientific Reports, 2020):

How the values were obtained:
[1] = target: T1, mtDod(WT) (Mycobacterium tuberculosis, UniProt I6XY36)
T1 construct: gene Rv1498A

[2] = target: mtDod-mmACP (Mycobacterium tuberculosis | Mus musculus); assay: SEC
[3] = target: mtDod-mmACP (Mycobacterium tuberculosis | Mus musculus); assay: SDS-PAGE (dodecamer stable in SDS)
[4] = target: the molecule itself; assay: SDS-PAGE (dodecamer stable in SDS)

Q: With `Cc1cc2nc3c(=O)[nH]c(=O)nc-3n(C[C@H](O)[C@H](O)[C@H](O)COP(=O)(O)O)c2cc1C` [FMN] as the molecule, how does the “thermocyclic fluorescence assay (quenching of FMN fluorescence on binding to the)” value [1] read?
A: fluorescence quenching that is observed when flavins bind to dodecin

Q: Which results are given for mtDod-mmACP?
A: stoichiometry N [2]: 12; stoichiometry N [3]: 12

B1: Mycobacterium tuberculosis dodecin wild type (natural protein)
chain: MSNHTYRVIEIVGTSPDGVDAAIQGGLARAAQTMRALDWFEVQSIRGHLVDGAVAHFQVTMKVGFRLEDS
notes: also called mtDod(WT); mtDod; copies: 12
Q: How did the “stoichiometry N” value [4] turn out when B1 was run?
A: 12
